To fix the notation:
B5: YdiV (natural protein, E. coli)
chain: MKIFLENLYHSDCYFLPIRDNQQVLVGVELITHFSSEDGTVRIPTSRVIAQLTEEQHWQLFSEQLELLKSCQHFFIQHKLFAWLNLTPQVATLLLERDNYAGELLKYPFIELLINENYPHLNEGKDNRGLLSLSQVYPLVLGNLGAGNSTMKAVFDGLFTRVMLDKSFIQQQITHRSFEPFIRAIQAQISPCCNCIIAGGIDTAEILAQITPFDFHALQGCLWPAVPINQITTLVQR
notes: YdiV, E. coli; the ydiV gene was cloned into pET29b and pGL01; His-tag removal by PPase is stated for prey proteins of the pull-down; The crystal of YdiV alone (3TLQ) was phased with Se-Met-YdiV; also called native YdiV; wild-type YdiV; source: E. coli BL21(DE3), purified (Ni2+-NTA, Source-Q, Superdex 200)

The assay “YdiV” deals with B5. Nature of the assay: pull-down; His-tagged bait immobilised on Ni2+-NTA beads, prey with His-tag removed by PPase; 4°C, 30 min; 25 mM Tris-HCl pH 8.0, 100 mM NaCl; eluted with 250 mM imidazole; SDS-PAGE, Coomassie. Particulars: both partners purified.
The target of assay [1] is T1, FlhD4C2 complex (E. coli, UniProt P0A8S9 1-116; P0ABY7 1-192).
T1 sequence 1: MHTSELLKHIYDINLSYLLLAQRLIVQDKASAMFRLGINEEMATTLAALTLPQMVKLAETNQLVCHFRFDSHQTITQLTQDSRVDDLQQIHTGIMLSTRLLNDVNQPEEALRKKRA
T1 sequence 2: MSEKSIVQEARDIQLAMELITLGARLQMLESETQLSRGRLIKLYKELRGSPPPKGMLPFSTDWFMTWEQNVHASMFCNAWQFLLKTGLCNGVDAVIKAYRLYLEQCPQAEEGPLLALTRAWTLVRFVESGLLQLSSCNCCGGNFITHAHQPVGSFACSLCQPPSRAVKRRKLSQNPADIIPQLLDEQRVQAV
In words: cell-based or functional assay.

Assay [2] has as its target T1, FlhD4C2 complex. Nature of the assay: SEC; YdiV and FlhD4C2 mixed at molar ratios 5:1, 4:1, 3:1, 2:1 or 1:1 for 10 min at room temperature; Superdex 200; fractions on SDS-PAGE. The following applies: both partners purified. (In general: SEC sorts molecules by how far they enter the pores of the column.)
Assay [3] concerns the target T2, DCmut-1 (FlhDC complex with FlhC K42E, K45E) (E. coli, UniProt P0A8S9 1-116; P0ABY7 1-192, K42E | K45E).
T2 construct: FlhD, E. coli; FlhC, E. coli; Lys42 and Lys45 substituted by Glu; Probably carries the C-terminal His-tag on FlhC as the wild-type complex does; the methods say only that mutants were cloned into pGL01; source: E. coli, purified
T2 sequence 1: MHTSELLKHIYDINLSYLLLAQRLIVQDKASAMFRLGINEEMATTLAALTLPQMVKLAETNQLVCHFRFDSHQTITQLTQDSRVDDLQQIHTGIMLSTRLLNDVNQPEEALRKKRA
T2 sequence 2: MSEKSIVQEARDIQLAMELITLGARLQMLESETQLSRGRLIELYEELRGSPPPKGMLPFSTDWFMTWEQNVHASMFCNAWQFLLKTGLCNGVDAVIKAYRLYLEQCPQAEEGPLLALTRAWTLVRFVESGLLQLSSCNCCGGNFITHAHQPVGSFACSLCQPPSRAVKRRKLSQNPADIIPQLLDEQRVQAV
In words: pull-down; His-tagged bait immobilised on Ni2+-NTA beads, prey with His-tag removed by PPase; 4°C, 30 min; 25 mM Tris-HCl pH 8.0, 100 mM NaCl; eluted with 250 mM imidazole; SDS-PAGE, Coomassie. The following applies: both partners purified.

Assay [4] deals with T3, DCmut-2 (FlhDC complex with FlhC R37E, R39E, K42E, K45E) (E. coli, UniProt P0A8S9 1-116; P0ABY7 1-192, R37E | R39E | K42E | K45E).
T3 construct: FlhD, E. coli; FlhC, E. coli, four substitutions; Probably carries the C-terminal His-tag on FlhC as the wild-type complex does; the methods say only that mutants were cloned into pGL01; source: E. coli, purified
T3 sequence 1: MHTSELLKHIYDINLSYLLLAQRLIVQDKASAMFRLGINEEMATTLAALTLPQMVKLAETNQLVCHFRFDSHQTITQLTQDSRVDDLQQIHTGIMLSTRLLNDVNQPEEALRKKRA
T3 sequence 2: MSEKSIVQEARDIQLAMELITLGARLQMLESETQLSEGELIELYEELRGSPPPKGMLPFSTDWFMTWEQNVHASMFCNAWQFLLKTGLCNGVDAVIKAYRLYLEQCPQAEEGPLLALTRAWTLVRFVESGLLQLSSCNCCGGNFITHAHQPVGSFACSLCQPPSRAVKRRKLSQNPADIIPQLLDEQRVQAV
Described as above. Particulars: both partners purified.

For orientation: stoichiometry N means a count of units in the complex or per binding partner.

B1: FlhD fragment 1–71aa (domain or fragment, E. coli, UniProt P0A8S9 1-71, looked up)
chain: MHTSELLKHIYDINLSYLLLAQRLIVQDKASAMFRLGINEEMATTLAALTLPQMVKLAETNQLVCHFRFDS
notes: FlhD, E. coli, residues 1-71; also called FlhD (1–71aa); source: E. coli, purified recombinant protein
In the case of B1, the binding result with YdiV is reported as “binds”.

B2: FlhD fragment 1–106aa (domain or fragment, E. coli, UniProt P0A8S9 1-106, looked up)
chain: MHTSELLKHIYDINLSYLLLAQRLIVQDKASAMFRLGINEEMATTLAALTLPQMVKLAETNQLVCHFRFDSHQTITQLTQDSRVDDLQQIHTGIMLSTRLLNDVNQ
notes: FlhD, E. coli, residues 1-106; also called FlhD (1–106aa); source: E. coli, purified recombinant protein
As for B2, in the assay with YdiV, the binding result is listed as “binds”.

B3: FlhD fragment 1–98aa (domain or fragment, E. coli, UniProt P0A8S9 1-98, looked up)
chain: MHTSELLKHIYDINLSYLLLAQRLIVQDKASAMFRLGINEEMATTLAALTLPQMVKLAETNQLVCHFRFDSHQTITQLTQDSRVDDLQQIHTGIMLST
notes: FlhD, E. coli, residues 1-98; also called FlhD (1–98aa); source: E. coli, purified recombinant protein
For the molecule B3, the binding result with YdiV is recorded as “binds”.

B4: FlhD fragment 1–82aa (domain or fragment, E. coli, UniProt P0A8S9 1-82, looked up)
chain: MHTSELLKHIYDINLSYLLLAQRLIVQDKASAMFRLGINEEMATTLAALTLPQMVKLAETNQLVCHFRFDSHQTITQLTQDS
notes: FlhD, E. coli, residues 1-82; also called FlhD (1–82aa); source: E. coli, purified recombinant protein
With B4, the binding result with YdiV is recorded as “binds”.

For B5, the “EMSA: DNA binding of FlhD4C2 (49-bp flhB promoter) with 5-fold excess of YdiV and at different molar ratios of YdiV:FlhD4C2” value with FlhD4C2 complex [1] was > 3 molar ratio YdiV:FlhD4C2. In the assay with FlhD4C2 complex [2], the “stoichiometry N” value stood at 4 YdiV per FlhD4C2. The binding result in assay [3] and in assay [4] was “binds” throughout.

B6: FlhD-His (natural protein, E. coli)
chain: MHTSELLKHIYDINLSYLLLAQRLIVQDKASAMFRLGINEEMATTLAALTLPQMVKLAETNQLVCHFRFDSHQTITQLTQDSRVDDLQQIHTGIMLSTRLLNDVNQPEEALRKKRA
notes: FlhD, E. coli; the flhD gene was cloned into pET29b and pGL01; source: E. coli BL21(DE3): co-expressed with YdiV (in lysate); purified as bait for the pull-down
On to B6, for which, in the assay with YdiV, the binding result is given as “binds”.
